± gives the uncertainty stated by the source.

In the Human Domainome abundance scans (Beltran et al. 2025) one finds abundance fitness data, which are given here for 47 variants.

The chains are these.
B1: Zinc finger homeobox protein 3, residues 2147 to 2202; numbered along this chain, Q15911 (parent)
chain: RPRTRITDDQLRVLRQYFDINNSPSEEQIKEMADKSGLPQKVIKHWFRNTLFKERQ

Variants of B1 are the subject of the data set. In words: abundance fitness (aPCA) (normalised: wild type 0, dead -1); higher = more abundant; growth selection in yeast, the domain comes from the species named. The note with it: Homo sapiens.
For RPRTRITTDQLRVLRQYFDINNSPSEEQIKEMADKSGLPQKVIKHWFRNTLFKERQ [D8T], the abundance fitness was -0.001 ± 0.081.
With RPRTRITGDQLRVLRQYFDINNSPSEEQIKEMADKSGLPQKVIKHWFRNTLFKERQ [D8G] the figure was -0.063 ± 0.062.
With RPRTRITHDQLRVLRQYFDINNSPSEEQIKEMADKSGLPQKVIKHWFRNTLFKERQ [D8H] the figure was 0.026 ± 0.13; with RPRTRITLDQLRVLRQYFDINNSPSEEQIKEMADKSGLPQKVIKHWFRNTLFKERQ [D8L], -0.028 ± 0.067; with RPRTRITNDQLRVLRQYFDINNSPSEEQIKEMADKSGLPQKVIKHWFRNTLFKERQ [D8N], -0.211 ± 0.11.
The figure for RPRTRITCDQLRVLRQYFDINNSPSEEQIKEMADKSGLPQKVIKHWFRNTLFKERQ [D8C] is 0.054 ± 0.098; for RPRTRITMDQLRVLRQYFDINNSPSEEQIKEMADKSGLPQKVIKHWFRNTLFKERQ [D8M] it is -0.096 ± 0.086; for RPRTRITADQLRVLRQYFDINNSPSEEQIKEMADKSGLPQKVIKHWFRNTLFKERQ [D8A] it is -0.022 ± 0.067.
Turning to RPRTRITRDQLRVLRQYFDINNSPSEEQIKEMADKSGLPQKVIKHWFRNTLFKERQ [D8R], the abundance fitness was -0.226 ± 0.064.
Turning to RPRTRITPDQLRVLRQYFDINNSPSEEQIKEMADKSGLPQKVIKHWFRNTLFKERQ [D8P], the abundance fitness came to 0.149 ± 0.095.
The figure for RPRTRITEDQLRVLRQYFDINNSPSEEQIKEMADKSGLPQKVIKHWFRNTLFKERQ [D8E] is -0.012 ± 0.076; for RPRTRITWDQLRVLRQYFDINNSPSEEQIKEMADKSGLPQKVIKHWFRNTLFKERQ [D8W] it is -0.277 ± 0.079; for RPRTRITSDQLRVLRQYFDINNSPSEEQIKEMADKSGLPQKVIKHWFRNTLFKERQ [D8S] it is 0.02 ± 0.075.
Turning to RPRTRITVDQLRVLRQYFDINNSPSEEQIKEMADKSGLPQKVIKHWFRNTLFKERQ [D8V], the abundance fitness was -0.05 ± 0.065.
For RPRTRITYDQLRVLRQYFDINNSPSEEQIKEMADKSGLPQKVIKHWFRNTLFKERQ [D8Y], the abundance fitness was -0.215 ± 0.098.
The figure for RPRTRITQDQLRVLRQYFDINNSPSEEQIKEMADKSGLPQKVIKHWFRNTLFKERQ [D8Q] is 0.061 ± 0.092; for RPRTRISDDQLRVLRQYFDINNSPSEEQIKEMADKSGLPQKVIKHWFRNTLFKERQ [T7S] it is 0.054 ± 0.079; for RPRTRIFDDQLRVLRQYFDINNSPSEEQIKEMADKSGLPQKVIKHWFRNTLFKERQ [T7F] it is -0.432 ± 0.17.
Take RPRTRIEDDQLRVLRQYFDINNSPSEEQIKEMADKSGLPQKVIKHWFRNTLFKERQ [T7E]: the abundance fitness is -0.133 ± 0.081.
In the case of RPRTRIPDDQLRVLRQYFDINNSPSEEQIKEMADKSGLPQKVIKHWFRNTLFKERQ [T7P], the abundance fitness was -0.086 ± 0.1.
With RPRTRIRDDQLRVLRQYFDINNSPSEEQIKEMADKSGLPQKVIKHWFRNTLFKERQ [T7R] the figure was -0.174 ± 0.067.
With RPRTRINDDQLRVLRQYFDINNSPSEEQIKEMADKSGLPQKVIKHWFRNTLFKERQ [T7N] the figure was -0.204 ± 0.11.
Consider RPRTRIMDDQLRVLRQYFDINNSPSEEQIKEMADKSGLPQKVIKHWFRNTLFKERQ [T7M], for which the abundance fitness was -0.162 ± 0.094.
In the case of RPRTRIYDDQLRVLRQYFDINNSPSEEQIKEMADKSGLPQKVIKHWFRNTLFKERQ [T7Y], the abundance fitness was -0.388 ± 0.13.
As for RPRTRIVDDQLRVLRQYFDINNSPSEEQIKEMADKSGLPQKVIKHWFRNTLFKERQ [T7V], the abundance fitness was -0.208 ± 0.074.
Take RPRTRIGDDQLRVLRQYFDINNSPSEEQIKEMADKSGLPQKVIKHWFRNTLFKERQ [T7G]: the abundance fitness is -0.2 ± 0.067.
The figure for RPRTRIQDDQLRVLRQYFDINNSPSEEQIKEMADKSGLPQKVIKHWFRNTLFKERQ [T7Q] is -0.253 ± 0.088.
As to RPRTRIKDDQLRVLRQYFDINNSPSEEQIKEMADKSGLPQKVIKHWFRNTLFKERQ [T7K], the abundance fitness is -0.336 ± 0.09.
As for RPRTRILDDQLRVLRQYFDINNSPSEEQIKEMADKSGLPQKVIKHWFRNTLFKERQ [T7L], the abundance fitness is -0.273 ± 0.077.
With RPRTRIHDDQLRVLRQYFDINNSPSEEQIKEMADKSGLPQKVIKHWFRNTLFKERQ [T7H] the figure was -0.336 ± 0.13; with RPRTRIIDDQLRVLRQYFDINNSPSEEQIKEMADKSGLPQKVIKHWFRNTLFKERQ [T7I], -0.596 ± 0.13; with RPRTRICDDQLRVLRQYFDINNSPSEEQIKEMADKSGLPQKVIKHWFRNTLFKERQ [T7C], -0.367 ± 0.11.
With RPRTRIADDQLRVLRQYFDINNSPSEEQIKEMADKSGLPQKVIKHWFRNTLFKERQ [T7A] the figure was -0.024 ± 0.074; with RPRTRITDDQERVLRQYFDINNSPSEEQIKEMADKSGLPQKVIKHWFRNTLFKERQ [L11E], 0.142 ± 0.078.
As to RPRTRITDDQPRVLRQYFDINNSPSEEQIKEMADKSGLPQKVIKHWFRNTLFKERQ [L11P], the abundance fitness was -0.962 ± 0.11.
For the variant RPRTRITDDQQRVLRQYFDINNSPSEEQIKEMADKSGLPQKVIKHWFRNTLFKERQ [L11Q], the abundance fitness was -0.01 ± 0.09.
Regarding RPRTRITDDQFRVLRQYFDINNSPSEEQIKEMADKSGLPQKVIKHWFRNTLFKERQ [L11F], the abundance fitness is -0.216 ± 0.1.
The figure for RPRTRITDDQGRVLRQYFDINNSPSEEQIKEMADKSGLPQKVIKHWFRNTLFKERQ [L11G] is -0.088 ± 0.063; for RPRTRITDDQHRVLRQYFDINNSPSEEQIKEMADKSGLPQKVIKHWFRNTLFKERQ [L11H] it is -0.399 ± 0.13.
With RPRTRITDDQIRVLRQYFDINNSPSEEQIKEMADKSGLPQKVIKHWFRNTLFKERQ [L11I] the figure was -0.126 ± 0.13; with RPRTRITDDQNRVLRQYFDINNSPSEEQIKEMADKSGLPQKVIKHWFRNTLFKERQ [L11N], -0.019 ± 0.15.
RPRTRITDDQDRVLRQYFDINNSPSEEQIKEMADKSGLPQKVIKHWFRNTLFKERQ [L11D]: the abundance fitness was -0.182 ± 0.14.
Regarding RPRTRITDDQRRVLRQYFDINNSPSEEQIKEMADKSGLPQKVIKHWFRNTLFKERQ [L11R], the abundance fitness came out at 0.034 ± 0.063.
With RPRTRITDDQMRVLRQYFDINNSPSEEQIKEMADKSGLPQKVIKHWFRNTLFKERQ [L11M] the figure was -0.04 ± 0.098; with RPRTRITDDQCRVLRQYFDINNSPSEEQIKEMADKSGLPQKVIKHWFRNTLFKERQ [L11C], -1.12 ± 0.11; with RPRTRITDDQARVLRQYFDINNSPSEEQIKEMADKSGLPQKVIKHWFRNTLFKERQ [L11A], -0.019 ± 0.066.
With RPRTRITDDQKRVLRQYFDINNSPSEEQIKEMADKSGLPQKVIKHWFRNTLFKERQ [L11K] the figure was 0.095 ± 0.099.
